The values that follow come from patent publication US20250188154A1.

The target in assay [1] is SARS-CoV-2 spike D614G on pseudovirus (VRC7480.D614G) (SARS-CoV-2) (UniProt P0DTC2). The experiment in a line: cell-based or functional assay.
The target of assay [2] is SARS-CoV-2 D614G live virus spike (SARS-CoV-2) (UniProt P0DTC2). The experiment in a line: cell-based or functional assay.

As for DH1042 (antibody), in assay [1], the Pseudovirus IC50 was 0.011 µg/mL, the Pseudovirus IC80 stood at 0.053 µg/mL, the Pseudovirus MPI worked out at 100% and the Pseudovirus neutralization IC50 was found to be 0.011 µg/mL. For the same substance, in assay [1], the Pseudovirus neutralization IC80 turned out to be 0.053 µg/mL and the Pseudovirus neutralization MPI was 100%.

As to DH1047 (antibody), in assay [1], the Pseudovirus neutralization IC50 was found to be 0.09 µg/mL, the Pseudovirus neutralization IC80 came out at 0.36 µg/mL and the Pseudovirus neutralization MPI was determined as 100%. Further, the live virus neutralization IC50 in assay [2] is 0.059 µg/mL.
